Test results from patent US20140370021A1.

Key:
[1] = target: extracellular region of human R131 FcγRIIa, GST-tagged (human) (UniProt P12318); assay: AlphaScreen competition: the antibody displaces biotinylated WT antibody (donor beads) from GST-tagged human R131 FcγRIIa (acceptor beads)
[2] = target: extracellular region of human V158 FcγRIIIa fused with glutathione S-transferase (GST) (human) (UniProt P08637); assay: AlphaScreen competition as in Example 2 (biotinylated WT antibody on donor beads, GST-tagged human V158 FcγRIIIa on acceptor beads); Fc variants in the context of trastuzumab
[3] = target: F158 FcγRIIIa as used in SPR (UniProt P08637); assay: SPR
His-tagged V158 FcγRIIIa = His-tagged V158 FcγRIIIa (UniProt P08637); assay: SPR, receptor immobilized
[4] = target: extracellular region of human V158 FcγRIIIa fused with glutathione S-transferase (GST) (human) (UniProt P08637); assay: AlphaScreen competition
bacterial protein A = bacterial protein A (UniProt P38507); assay: AlphaScreen competition: the antibody displaces biotinylated WT alemtuzumab (donor beads) from protein A coupled directly to acceptor beads
[5] = target: FcγRIIIa on human PBMCs, heterozygous V158/F158 (human) (UniProt P08637); assay: cell-based or functional assay

| IC50 (read off the curve) [1] [nM] | Kd [3] [nM] | Kd (His-tagged V158 FcγRIIIa) [nM] | Substance | also measured |
| --- | --- | --- | --- | --- |
| 3 |  |  | S239D/A330Y/I332E (antibody) |  |
| 4 |  |  | S239D/S298A/I332E (antibody) |  |
| 6 |  |  | S239N/A330Y/I332E (antibody) |  |
|  | 72 | 31 | alemtuzumab I332E (antibody) | IC50 (read off the curve) (bacterial protein A): 1e-09 2M |
|  | 285 | 52 | alemtuzumab S298A (antibody) |  |

More lines, now with the values behind:

| Substance | IC50 (read off the curve) [1] [nM] | Kd [3] [nM] | Kd (His-tagged V158 FcγRIIIa) [nM] | also measured |
| --- | --- | --- | --- | --- |
| S239D/A330L/I332E (antibody) | 7 |  |  |  |
| S239N/I332E (antibody) |  |  |  | IC50 (read off the curve) [2]: 0.7 nM |
| WT alemtuzumab (Campath), IgG1, expressed in 293T cells (antibody) |  | 730 | 68 |  |
| alemtuzumab Fc variant 192 (V264E/N297D/I332E by Table 60; printed V264I/N297D/I332E in Table 61) (antibody) |  |  |  | FcγRIIIa Fold [4]: 0.05 fold vs WT |
| alemtuzumab S239D/I332E (antibody) | 3 |  |  | ADCC EC50 [5]: 3 ng/mL; ADCC log(EC50) [5]: 0.49 log(ng/ml) |
| alemtuzumab S298A/E333A/K334A (antibody) |  | 156 | 39 |  |
| alemtuzumab V264I (antibody) |  | 550 | 64 | IC50 (read off the curve) (bacterial protein A): 1e-09 2M |
| alemtuzumab V264I/I332E (antibody) |  | 52 | 17 | ADCC EC50 [5]: 4 ng/mL; ADCC log(EC50) [5]: 0.6 log(ng/ml) |
